Experimental data reported in patent publication EP2450379B1.

Target: HA in BPL-inactivated virus preparation of A/New Caledonia/20/99 (H1N1) (influenza A virus A/New Caledonia/20/99 (H1N1))
Assay: ELISA, IgG 5 µg/ml

Row | Substance | OD 492nm
1 | CR3014 (antibody) | 0.09 OD 492nm
2 | CR6261 (antibody) | 1.46 OD 492nm
